In publication PMC12578638:

Legend:
[1] = target: biotinylated pDPEP1-Avi (pig DPEP1 residues 17-385) (pig (Sus scrofa)) (UniProt P22412); assay: BLI
[2] = target: hDPEP1-Avi (human DPEP1 residues 17-385) (human) (UniProt P16444); assay: BLI
Sequence of UniProt P16444 (P16444 17-385): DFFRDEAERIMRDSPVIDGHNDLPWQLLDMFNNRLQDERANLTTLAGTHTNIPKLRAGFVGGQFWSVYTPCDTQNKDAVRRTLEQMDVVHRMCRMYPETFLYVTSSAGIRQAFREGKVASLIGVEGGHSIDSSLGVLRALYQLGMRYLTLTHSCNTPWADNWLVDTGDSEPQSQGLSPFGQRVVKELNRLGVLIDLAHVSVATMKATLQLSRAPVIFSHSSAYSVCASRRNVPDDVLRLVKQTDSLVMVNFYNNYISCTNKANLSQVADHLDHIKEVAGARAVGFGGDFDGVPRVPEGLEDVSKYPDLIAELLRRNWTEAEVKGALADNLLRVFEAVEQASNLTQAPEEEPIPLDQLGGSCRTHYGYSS

Sequence of UniProt P22412 (P22412 17-385): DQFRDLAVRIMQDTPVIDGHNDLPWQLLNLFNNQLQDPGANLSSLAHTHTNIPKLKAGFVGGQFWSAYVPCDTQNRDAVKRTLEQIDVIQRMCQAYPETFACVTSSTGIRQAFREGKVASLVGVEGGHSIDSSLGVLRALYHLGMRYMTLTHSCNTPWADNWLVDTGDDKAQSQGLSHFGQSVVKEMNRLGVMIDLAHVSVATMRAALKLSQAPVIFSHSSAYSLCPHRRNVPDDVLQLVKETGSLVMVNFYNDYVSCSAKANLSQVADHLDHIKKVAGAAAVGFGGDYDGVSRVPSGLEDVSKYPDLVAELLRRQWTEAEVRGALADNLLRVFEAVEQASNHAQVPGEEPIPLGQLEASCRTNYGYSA

PHEV spike RBD (residues 327-605), from Expi293F cells (domain or fragment)
Kd [1]: 1500 nM
Kd [2]: 2990 nM
